First the molecules themselves.
B1: S. cerevisiae Abp1 (full length; SH3 domain 535-592 mutated) / Hua2 (parent complex)
chain 1: MALEPIDYTTHSREIDAEYLKIVRGSDPDTTWLIISPNAKKEYEPESTGSSFHDFLQLFDETKVQYGLARVSPPGSDVEKIIIIGWCPDSAPLKTRASFAANFAAVANNLFKGYHVQVTARDEDDLDENELLMKISNAAGARYSIQTSSKQQGKASTPPVKKSFTPSKSPAPVSKKEPVKTPSPAPAAKISSRVNDNNDDDDWNEPELKERDFDQAPLKPNQSSYKPIGKIDLQKVIAEEKAKEDPRLVQKPTAAGSKIDPSSDIANLKNESKLKRDSEFNSFLGTTKPPSMTESSLKNDDDKVIKGFRNEKSPAQLWAERKAKQNSGNAETKAEAPKPEVPEDEPEGEPDVKDLKSKFEGLAASEKEEEEMENKFAPPPKKSEPTIISPKPFSKPQEPVKAEEAEQPKTDYKKIGNPLPGMHIEADNEEEPEENDDDWDDDEDEAAQPPLPSRNVASGAPVQKEEPEQEEIAPSLPSRNSIPAPKQEEAPEQAPEEEIEEEAEEAAPQLPSRSSAAPPPPPRRATPEKKPKENPWATAEYDYDAAEDNELTFVENDKIINIEFVDDDWWLGELEKDGSKGLFPSNYVSLGN
chain 2: MQQTKFGKMYLDHDSVVEYSEDEIVEADRITLGYKKRLSMIENQMRHLLEDFSLDVQQIEPILADLQKYYDAFLQLLQKRNKSLQCKRSTHQPVPSPMNSQTSTNAKVNLSGKLMKFQLNSVQKFDEENILRILQNKIEFEHYFQIDKGKKQKVLLLAVYQCLNGPTRLHKVLNIEGIIHNNSIRTILGKQVSSSKWTVFLYDVKLVLLAHRQDVPNLETSKMIVRYGDLFPCALYFKDHTAY

Results on 37 variants are retold here after PMC7954794 (2021).

In this assay the parent is B1. Nature of the assay: DHFR protein-fragment complementation in yeast (Abp1-DHFR F[1,2] x partner-DHFR F[3]), deep mutational scanning, second methotrexate selection vs reference; S. cerevisiae, DHFR-PCA selection in liquid with methotrexate at 30 C, two 72 h selections (the score uses the second); reference = the pre-selection culture.
In the case of chain 1 V565A, the screen value is -0.567 DMS score: mean over two replicates of log2(f_test/f_ref + 0.5)/ln 2, minus the synonymous-codon median (not a log2 ….

For chain 1 E563N, the screen value was -0.99 DMS score: mean over two replicates of log2(f_test/f_ref + 0.5)/ln 2, minus the synonymous-codon median (not a log2 …. Under chain 1 E563R stands -1.39 DMS score: mean over two replicates of log2(f_test/f_ref + 0.5)/ln 2, minus the synonymous-codon median (not a log2 …; under chain 1 T552K, -0.621 DMS score: mean over two replicates of log2(f_test/f_ref + 0.5)/ln 2, minus the synonymous-codon median (not a log2 …. Under chain 1 L551I stands -0.106 DMS score: mean over two replicates of log2(f_test/f_ref + 0.5)/ln 2, minus the synonymous-codon median (not a log2 …; under chain 1 E575L, -0.106 DMS score: mean over two replicates of log2(f_test/f_ref + 0.5)/ln 2, minus the synonymous-codon median (not a log2 …; under chain 1 E575C, -0.21 DMS score: mean over two replicates of log2(f_test/f_ref + 0.5)/ln 2, minus the synonymous-codon median (not a log2 …. The value for chain 1 E575M was -0.236 DMS score: mean over two replicates of log2(f_test/f_ref + 0.5)/ln 2, minus the synonymous-codon median (not a log2 …; that for chain 1 E575S was -0.146 DMS score: mean over two replicates of log2(f_test/f_ref + 0.5)/ln 2, minus the synonymous-codon median (not a log2 …. Take chain 1 Y541S: the screen value was -1.59 DMS score: mean over two replicates of log2(f_test/f_ref + 0.5)/ln 2, minus the synonymous-codon median (not a log2 …. The value for chain 1 Y541K was -2.77 DMS score: mean over two replicates of log2(f_test/f_ref + 0.5)/ln 2, minus the synonymous-codon median (not a log2 …; that for chain 1 Y541V was -1.72 DMS score: mean over two replicates of log2(f_test/f_ref + 0.5)/ln 2, minus the synonymous-codon median (not a log2 …. The value for chain 1 Y541L was -2.57 DMS score: mean over two replicates of log2(f_test/f_ref + 0.5)/ln 2, minus the synonymous-codon median (not a log2 …; that for chain 1 Y541D was -1.13 DMS score: mean over two replicates of log2(f_test/f_ref + 0.5)/ln 2, minus the synonymous-codon median (not a log2 …; that for chain 1 Y541F was 0.0303 DMS score: mean over two replicates of log2(f_test/f_ref + 0.5)/ln 2, minus the synonymous-codon median (not a log2 …. Turning to chain 1 Y541C, the screen value was -1.21 DMS score: mean over two replicates of log2(f_test/f_ref + 0.5)/ln 2, minus the synonymous-codon median (not a log2 …. Consider chain 1 A545E, for which the screen value is -0.673 DMS score: mean over two replicates of log2(f_test/f_ref + 0.5)/ln 2, minus the synonymous-codon median (not a log2 …. Take chain 1 K558E: the screen value was -0.942 DMS score: mean over two replicates of log2(f_test/f_ref + 0.5)/ln 2, minus the synonymous-codon median (not a log2 ….

In the case of chain 1 K558C, the screen value was -0.507 DMS score: mean over two replicates of log2(f_test/f_ref + 0.5)/ln 2, minus the synonymous-codon median (not a log2 …. Under chain 1 K558L stands 0.204 DMS score: mean over two replicates of log2(f_test/f_ref + 0.5)/ln 2, minus the synonymous-codon median (not a log2 …; under chain 1 K558Q, -0.388 DMS score: mean over two replicates of log2(f_test/f_ref + 0.5)/ln 2, minus the synonymous-codon median (not a log2 ….

In the case of chain 1 E573T, the screen value is 0.75 DMS score: mean over two replicates of log2(f_test/f_ref + 0.5)/ln 2, minus the synonymous-codon median (not a log2 …. As for chain 1 E573Q, the screen value was -0.0881 DMS score: mean over two replicates of log2(f_test/f_ref + 0.5)/ln 2, minus the synonymous-codon median (not a log2 …. Under chain 1 E573I stands -0.283 DMS score: mean over two replicates of log2(f_test/f_ref + 0.5)/ln 2, minus the synonymous-codon median (not a log2 …; under chain 1 E573V, 0.415 DMS score: mean over two replicates of log2(f_test/f_ref + 0.5)/ln 2, minus the synonymous-codon median (not a log2 ….

For chain 1 N549C, the screen value was 2.18 DMS score: mean over two replicates of log2(f_test/f_ref + 0.5)/ln 2, minus the synonymous-codon median (not a log2 …. In the case of chain 1 N549I, the screen value is 0.356 DMS score: mean over two replicates of log2(f_test/f_ref + 0.5)/ln 2, minus the synonymous-codon median (not a log2 …. The value for chain 1 N549S was 1.83 DMS score: mean over two replicates of log2(f_test/f_ref + 0.5)/ln 2, minus the synonymous-codon median (not a log2 …. The value for chain 1 N549L was 0.763 DMS score: mean over two replicates of log2(f_test/f_ref + 0.5)/ln 2, minus the synonymous-codon median (not a log2 …; that for chain 1 N549Q was 1.15 DMS score: mean over two replicates of log2(f_test/f_ref + 0.5)/ln 2, minus the synonymous-codon median (not a log2 …. Under chain 1 N549D stands 0.4 DMS score: mean over two replicates of log2(f_test/f_ref + 0.5)/ln 2, minus the synonymous-codon median (not a log2 …; under chain 1 N549E, 1.95 DMS score: mean over two replicates of log2(f_test/f_ref + 0.5)/ln 2, minus the synonymous-codon median (not a log2 …; under chain 1 D548T, 0.434 DMS score: mean over two replicates of log2(f_test/f_ref + 0.5)/ln 2, minus the synonymous-codon median (not a log2 …. As for chain 1 D548N, the screen value is 0.0071 DMS score: mean over two replicates of log2(f_test/f_ref + 0.5)/ln 2, minus the synonymous-codon median (not a log2 …. With chain 1 D548I, the screen value was -0.724 DMS score: mean over two replicates of log2(f_test/f_ref + 0.5)/ln 2, minus the synonymous-codon median (not a log2 …. The value for chain 1 K580F was 0.0243 DMS score: mean over two replicates of log2(f_test/f_ref + 0.5)/ln 2, minus the synonymous-codon median (not a log2 …. Regarding chain 1 K580Q, the screen value is 0.294 DMS score: mean over two replicates of log2(f_test/f_ref + 0.5)/ln 2, minus the synonymous-codon median (not a log2 ….
